Experiment: yeast display, Sf9 membrane polyspecificity reagent, FACS + sequencing; frameworks hold sequencing errors
Procedure, shortened: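 Polyreactivity labels are assigned by the sorting gate from which each nanobody was recovered. The gates were low and high (top ~1%), set on anti-HA fluorescence for expression and streptavidin fluorescence for reagent binding. Before sorting, galactose-induced (36–48 hours) yeast display cells were stained for 1 hour at 4 °C with 10% biotinylated, detergent-solubilized Sf9 membrane reagent.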

Sequence | polyreactivity (PSR sort gate)
QVHLVESGGGLVHAGGSLRLSCAASGSTFDYYAMGWYRQEHGKERELVAAISSGGSTYYADSVKGSFTISRDNPKNTVYLQMNSRKPEDTAVYYCAAVYRGQFSRYDYWGQGTQVTVSS | low polyreactivity
QVHLVESGGGLVHAGGSLRLSCAASGSTFSYYTMGWYRQAPGKERELVAAITRRGDSTYADSVKGRFTISRDNAKNTVYLQMNSLKPEDTAVYYCAADASVGVSGMDYWGQGTQVTVSS | low polyreactivity
QVHLVESGGGLVHAGGSLRVSCAASGYTFHRYAMGWYRQAPGKERELVAAITRGGGSTRYADSVKGRFTISRDNAKYTVYLQMNSLKPEDTAVYYCAAERRTPGRTTYYYWGQGTQVSVSS | high polyreactivity
QVHLVESGGGLVKAGGSLRLSCAASGLTFSYYARGWSRQPPGKEMELVAANSWSGGSTYYADSVKGRFTISRDNAKNTVYLQMNSLKPEDTAVYDCAVRPSDGVIFSKGYDHWGQGTQVTVSS | low polyreactivity
QVHLVESGGGLVKAGGSLRLSCAASGRIFYTYAMGWYRQAPGKERELVAAISRSGGRTYYADSVKGRFTISRDNGKNTVYLQMNSLKPEDNAVYYCNAVENWLFSSHDYWGQGTQVTVSS | low polyreactivity
QVHLVESGGGLVKAGGSLRLSCSASGSIFTYNAMGWYRQAPGKERELVAAISSRGTSTYYSDSVKGRFTISRDNAKNTVYLQMNSLKPEDTAVYYCAAVWVSQRRPWGNTNNYWGQGTQVTVSS | high polyreactivity
QVHLVESGGGLVLAGGSLRLSCAASGSTFGINAMGWYRQAPGKEREFVASISWSTGTTYYADSVKGRFTISRDNAKNTVYLQMNSLKPEDTAVYSCAAVDYYWGYEQWYDYWGQGTQVTVSS | high polyreactivity
QVHLVESGGGLVLAGGSLRLSCAASGSTLHLYAMGWYRQAPGKERELVADITSGGDTYYADSVKGRFTISRDNAKNTVYFQMNSLKPEDTAVYYCAAGPVYDWRGGALRYYYWGQGTQVSVSS | high polyreactivity
QVHLVESGGGLVPAGGSLRLTCAASGSTLWFNAMRWYRQAPGKERELVAAISFYSGSTYYSDSVKGRFTISRDNANNTVYLQMNSLKPEDTAVYYCAARRRWWGYDYWGQATQVTVSS | high polyreactivity
QVHLVESGGGLVQAAGSLRLSCAASGFIFYYYAMGWYRQAPGKERELVAAISRSGGRTYYADSVKGRFTISRDNAKNTVYLQMNSLKPEDTAVYYCAAPGYQTVGMGYWGQGTQVTVSS | high polyreactivity
QVHLVESGGGLVQAGASLRLSCAASGITFRFNAMGWYRQAPGKEREFVAAITYSGDSTYYADSVKGRFTISRDNAKNTVYLQMNSLKPEDTAVYYCAADYYAISRRMFYYWGQGTQVTVSS | low polyreactivity
QVHLVESGGGLVQAGGRLRLSCAASGFTFYKYAMGWYRQAPGKERELVAAITWSGGRTYYADSVKGRFTISRDNAKNTVYLQMNSLKPEDTAVYYCAADLHKLARYDYWGQGTQVTVSS | high polyreactivity
QVHLVESGGGLVQAGGSFRLSCAASGSIFDGYSMGWYRQAPGKERELVAAISYRVGRTYYADSVKGRFTISRDNAKNTVYLQMNSLKPEDTAVYYCAAGYYGNGVFEYDYWGQGTQVTVSS | low polyreactivity
QVHLVESGGGLVQAGGSHRLSCAASGRIFRGYAMGWYIQAPGKERELVAAISGRGGRTYYADSVKGRFTISRDNAKNTVYLQMNSLKPEDTAVYYCNARRGRRGYYGNGDYWGQGTQVTVSS | high polyreactivity
QVHLVESGGGLVQAGGSHRLSCAASGRTFDNYAMGWYRQAPGKERELVAAISRRGGSTYYADSVKGRFTISRDNAKNTVYLQMNSLKPEDTAVYYCAADRLVWKPTVVGFYYWGQGTQVTVSS | high polyreactivity
QVHLVESGGGLVQAGGSIRLSCAASGRTLDPYTMGWYRQAPGKERELVAAITSSGGRTTYADSVKGRFTISRDNAKITVYLQMNSLKPEDTAVYYCAKKFRPVYRSQYLRYSWGQGTQVTVSS | low polyreactivity
QVHLVESGGGLVQAGGSLCLSCAASGSIFINAMGWYRQAPGKERELVATIRWRGGTTYYADSVKGRFTISRDNAKNTVYLQMNSLKPEDTAVYYCAARVHSVHYPYYYWGQGTQVTVSS | low polyreactivity
